IntAct's records for PubMed 17057713

B1: A-type potassium channel modulatory protein KCNIP1 (Homo sapiens), Q9NZI2 (parent)
chain: MGAVMGTFSSLQTKQRRPSKDIAWWYYQYQRDKIEDELEMTMVCHRPEGLEQLEAQTNFTKRELQVLYRGFKNECPSGVVNEDTFKQIYAQFFPHGDASTYAHYLFNAFDTTQTGSVKFEDFVTALSILLRGTVHEKLRWTFNLYDINKDGYINKEEMMDIVKAIYDMMGKYTYPVLKEDTPRQHVDVFFQKMDKNKDGIVTLDEFLESCQEDDNIMRSLQLFQNVM
partner: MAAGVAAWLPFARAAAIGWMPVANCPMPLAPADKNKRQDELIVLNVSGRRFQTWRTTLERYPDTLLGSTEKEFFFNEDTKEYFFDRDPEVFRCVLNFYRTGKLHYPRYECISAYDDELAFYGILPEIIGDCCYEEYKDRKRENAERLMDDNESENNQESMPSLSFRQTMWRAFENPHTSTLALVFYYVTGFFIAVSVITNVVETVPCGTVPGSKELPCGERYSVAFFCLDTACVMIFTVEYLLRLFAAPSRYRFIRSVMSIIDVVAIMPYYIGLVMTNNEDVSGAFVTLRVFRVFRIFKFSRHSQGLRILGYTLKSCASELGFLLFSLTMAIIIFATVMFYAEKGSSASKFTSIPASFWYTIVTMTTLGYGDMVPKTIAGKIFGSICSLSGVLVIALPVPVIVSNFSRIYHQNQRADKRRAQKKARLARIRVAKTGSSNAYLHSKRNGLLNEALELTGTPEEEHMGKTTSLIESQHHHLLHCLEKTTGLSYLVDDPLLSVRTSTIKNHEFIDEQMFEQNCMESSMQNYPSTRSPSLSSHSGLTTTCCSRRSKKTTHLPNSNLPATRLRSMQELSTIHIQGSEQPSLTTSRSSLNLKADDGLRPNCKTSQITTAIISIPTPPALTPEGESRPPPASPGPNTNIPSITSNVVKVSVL

Variants of: B1
Conditions: with kcnd3_rat Kcnd3, Q62897

Row | Variant | effect of a mutation on the interaction
1 | D146A;D194A | decreasing interaction strength
